The results in this text go back to article PMC4962319.

This assay concerns the target TIA-1-GLuc1 (UniProt P31483). As to the kind of experiment: split reporter (BiFC, NanoBiT); split Gaussia luciferase protein-fragment complementation assay (PCA); GLuc1 and GLuc2 fusions coexpressed in live HEK293T cells, luminescence read 48 h after transfection with native coelenterazine.
Chain of UniProt P31483 (P31483 whole entry, the tested form may be a part): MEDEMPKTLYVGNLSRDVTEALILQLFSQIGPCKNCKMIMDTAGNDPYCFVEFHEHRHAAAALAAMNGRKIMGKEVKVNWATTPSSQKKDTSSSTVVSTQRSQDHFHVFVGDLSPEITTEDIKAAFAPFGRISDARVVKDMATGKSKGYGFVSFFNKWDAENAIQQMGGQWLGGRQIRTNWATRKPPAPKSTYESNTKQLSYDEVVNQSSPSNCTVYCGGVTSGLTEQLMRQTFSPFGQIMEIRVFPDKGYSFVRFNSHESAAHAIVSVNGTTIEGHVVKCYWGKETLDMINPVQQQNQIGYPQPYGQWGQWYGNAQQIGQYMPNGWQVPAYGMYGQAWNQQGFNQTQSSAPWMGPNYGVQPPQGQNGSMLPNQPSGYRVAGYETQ

Substance “TauE14-GLuc2 (from UniProt P10636-6 1-383) (natural protein)” had a fold of PCA interaction signal over wildtype Tau above 6 fold.
